{"source": "patent US20250152663A1", "about": "“COMPOSITION FOR PREVENTION OR TREATMENT OF DRY EYE DISEASE COMPRISING HAPLN1” (HAPLNSCIENCE INC., priority 2021, published 2025)", "molecules": {"B1": {"name": "hyaluronan and proteoglycan link protein 1 (HAPLN1) (protein, listed as Homo sapiens)", "chain": "MKSLLLLVLISICWADHLSDNYTLDHDRAIHIQAENGPHLLVEAEQAKVFSHRGGNVTLPCKFYRDPTAFGSGIHKIRIKWTKLTSDYLKEVDVFVSMGYHKKTYGGYQGRVFLKGGSDSDASLVITDLTLEDYGRYKCEVIEGLEDDTVVVALDLQGVVFPYFPRLGRYNLNFHEAQQACLDQDAVIASFDQLYDAWRGGLDWCNAGWLSDGSVQYPITKPREPCGGQNTVPGVRNYGFWDKDKSRYDVFCFTSNFNGRFYYLIHPTKLTYDEAVQACLNDGAQIAKVGQIFAAWKILGYDRCDAGWLADGSVRYPISRPRRRCSPTEAAVRFVGFPDKKHKLYGVYCFRAYN"}}, "key": {"[1]": {"tested_on": "MUC16 mRNA in human corneal epithelial cells", "assay": "RT-qPCR of mucin mRNA (MUC16) under high osmotic pressure", "type": "cell-based", "settings": "HCEC, 450 mOsM, 20 to 200 ng/ml, particularly 50 to 200 ng/ml, 24 hours; compared to the untreated group", "method": "First, the human corneal epithelial cells (HCECs, 5th passage) were seeded onto 6 wells at a density of […]. After 24 hours, the HCECs were pre-treated with a medium with different osmotic pressures (314 and 450 mOsM). After 48 hours of incubation, the cells were treated with the composition of the present disclosure having different concentrations of rhHAPLN1 (0, 5, 10, 20, 50, 100, and 200 ng/ml) and Cyclosporine A (0.1 μM), as a control drug, for 24 hours. Then, the cells were washed and sampled to perform RT-qPCR (FIG. 5A).\nTotal mRNA was purified from the HCECs by using a Qiagen kit. A cDNA was synthesized by using the iScript cDNA synthesis kit. Subsequently, RT-qPCR was performed and result data was expressed as relative expression levels (fold) (FIGS. 5B to 5C)."}, "rabbit dry eye model": {"tested_on": "rabbit dry eye model", "assay": "Tear volume assay (STT), benzalkonium chloride-induced dry eye disease model", "type": "in vivo, New Zealand white rabbits", "method": "One drop (0.05 ml) of 0.1% benzalkonium chloride (BAC) was administered to both eyes of rabbits twice a day (9:00 and 17:00) for 14 days, and then induction of dry eye was identified by examination of eyes, and the rabbits were classified into groups.\nThe test substance was dropped into the groups of the rabbit model twice a day (8:30 and 16:30) (Day 15 to 30 (total of 16 days)).\nAnesthesia was induced by intramuscular injection of Xylazine and Ketamine, and then one drop of Alcaine Eye Drop was administered and tear and the eye drop remaining therein were removed by using Weck-cel cellulose spear. After putting STT paper on the lower eyelid, a length of a wet region for 5 minutes was measured (STT-2). In addition, stability of the tear film was tested by measuring tear film break up time (TFBUT, measurement of time taken for the tear film to break down). Furthermore, conditions of the cornea and fluorescent staining were identified by a slit test."}, "[2]": {"tested_on": "MUC5AC in human conjunctiva epithelial cells (HConEpiC)", "assay": "Anti-MUC5AC fluorescence staining under high osmotic pressure", "type": "cell-based", "method": "First, human conjunctiva epithelial cells (HConEpiC) obtained after 4th passage of culture were seeded onto 24 wells and incubated for 24 hours, and then treated with high osmotic pressure of 450 mOsM simultaneously with the composition of the present disclosure having various concentrations (0, 5, 10, 20, 50, 100, and 200 ng/ml) of the HAPLN1 protein or Cyclosporine A (0.1 μM). After 72 hours of incubation, the cells were immobilized with 4% paraformaldehyde for 30 minutes and washed with a buffer. Subsequently, fluorescence staining was performed by using Anti-MUC5AC (DAPI labels the nuclei)."}, "[3]": {"tested_on": "human corneal epithelial cells", "assay": "Scratch wound healing (cell proliferation and migration) under high osmotic pressure", "type": "cell-based", "settings": "HCEC, 450 mOsM", "method": "The human corneal epithelial cells were seeded onto 24 wells and incubated for 24 hours under low osmotic pressure conditions (314 mOsM). Then, after replacing the culture medium with a high osmotic pressure medium (450 mOsM), the cells were incubated for 48 hours. Then, the surface of the Petri dish was vertically scratched and washed twice, and then the culture medium was replaced with the high osmotic pressure medium again and simultaneously the cells were treated with different concentrations of the HAPLN1 protein-containing composition of the present disclosure (FIG. 2A). A reduction in the scratched area was confirmed by obtaining photographs using a microscope at a time of scratching (0 h) and after 30 hours (FIG. 2B). This was imaged and a ratio of an area filled with cells to an initial area was identified by using ImageJ (FIG. 2C)."}}}
{"molecule": "B1", "values": [{"measurement": "expression level of MUC16 (FIG. 5C)", "setting": "[1]", "result": "significantly increased"}, {"measurement": "tear volume compared with Restasis", "setting": "rabbit dry eye model; after 10 days", "result": "increased the tear volume far more than Restasis"}, {"measurement": "tear volume", "setting": "rabbit dry eye model; concentration-dependent, from the 5th day, more than Restasis", "result": "consistently increased"}, {"measurement": "numbers of cells secreting MUC5AC, compared with control", "setting": "[2]; 450 mOsM, 10, 20, 50, 100, and 200 ng/ml, 72 hours", "result": "significantly greater than that of the normal control"}, {"measurement": "numbers of cells secreting MUC5AC, compared with Cyclosporine A", "setting": "[2]; 450 mOsM, at some concentrations, vs Cyclosporine A 0.1 μM", "result": "greater than the case treated with Cyclosporine A"}, {"measurement": "scratched surface covered by cell proliferation and migration", "setting": "[3]; 5 and 10 ng/ml, 30 hours, normal cells about 82%", "result": "about 60%"}, {"measurement": "cell proliferation and migration phenomena of scratched surfaces", "setting": "[3]; 5 to 100 ng/ml, 30 hours", "result": "observed over the entire area"}, {"measurement": "area covered with migrated cells compared with Cyclosporin A", "setting": "[3]; regardless of concentration, vs 0.1 μM Cyclosporin A", "result": "higher than 0.1 μM of Cyclosporin A"}]}
